Values of other authors, collected in patent US20180185417.

Target: CD31 (PECAM-1) (Homo sapiens) (UniProt P16284)
Conditions: CITED reported affinity of the commercial aptamer (1.14×10−9 M), method not stated

Q: Which Kd does the source give for CD31 aptamer (APTSCI CD31-2196BCI) here?
A: Its Kd is 1.14 nM.
